Data taken from the supplement of paper PMC9112550, “Optimization of the antimicrobial peptide Bac7 by deep mutational scanning” (BMC Biology, 2022).

Tested on: Escherichia coli TOP10
Experiment: shrunken log2 fold change of peptide-encoding DNA abundance (4.5 h post-induction vs induction); higher = less antimicrobial activity (less host growth inhibition)
Settings: time post-induction: 4.5 h; library: site-saturation at positions 5, 18, 19, 20
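Further: peptides expressed intracellularly from a pBAD plasmid library in pooled LB shake-flask culture, induced with 0.3% L-arabinose, DNA abundance read by NGS, three biological replicates, DESeq2 with apeglm shrinkage.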

RRIRCRPPRLPRPRPRPFASPRP
shrunken log2 fold change: 0.0328

RRIRHRPPRLPRPRPRPHKHPRP
shrunken log2 fold change: -0.546

RRIRHRPPRLPRPRPRPSMKPRP
shrunken log2 fold change: -0.436

RRIRWRPPRLPRPRPRPLSKPRP
shrunken log2 fold change: -0.0363

RRIRGRPPRLPRPRPRPYYPPRP
shrunken log2 fold change: -0.791

RRIRCRPPRLPRPRPRPKCAPRP
shrunken log2 fold change: 0.121

RRIRQRPPRLPRPRPRPMICPRP
shrunken log2 fold change: 0.013

RRIRCRPPRLPRPRPRPHYIPRP
shrunken log2 fold change: -0.0818

RRIRFRPPRLPRPRPRPELMPRP
shrunken log2 fold change: 0.179

RRIRCRPPRLPRPRPRPVPLPRP
shrunken log2 fold change: 0.00193

RRIRMRPPRLPRPRPRPVAFPRP
shrunken log2 fold change: 0.579

RRIRMRPPRLPRPRPRPTMDPRP
shrunken log2 fold change: 0.306

RRIRARPPRLPRPRPRPDYTPRP
shrunken log2 fold change: -0.312

RRIRTRPPRLPRPRPRPTGSPRP
shrunken log2 fold change: 0.0948

RRIRDRPPRLPRPRPRPGDVPRP
shrunken log2 fold change: 0.0601

RRIRLRPPRLPRPRPRPQAMPRP
shrunken log2 fold change: 0.00366

RRIRGRPPRLPRPRPRPRLYPRP
shrunken log2 fold change: 0.291

RRIRKRPPRLPRPRPRPPSPPRP
shrunken log2 fold change: 0.588

RRIRQRPPRLPRPRPRPWPAPRP
shrunken log2 fold change: 0.0128

RRIRERPPRLPRPRPRPVGIPRP
shrunken log2 fold change: 0.144

RRIRWRPPRLPRPRPRPVNAPRP
shrunken log2 fold change: 0.0945

RRIRIRPPRLPRPRPRPMGPPRP
shrunken log2 fold change: 0.0284

RRIRNRPPRLPRPRPRPLRNPRP
shrunken log2 fold change: 0.267

RRIRFRPPRLPRPRPRPCCKPRP
shrunken log2 fold change: -0.00992

RRIRWRPPRLPRPRPRPQVNPRP
shrunken log2 fold change: 0.141

RRIRKRPPRLPRPRPRPRKIPRP
shrunken log2 fold change: 0.968

RRIRIRPPRLPRPRPRPWCYPRP
shrunken log2 fold change: -0.406

RRIRCRPPRLPRPRPRPHRHPRP
shrunken log2 fold change: -0.275

RRIRVRPPRLPRPRPRPRRTPRP
shrunken log2 fold change: 0.115

RRIRLRPPRLPRPRPRPAYEPRP
shrunken log2 fold change: 2.25

RRIRSRPPRLPRPRPRPVPKPRP
shrunken log2 fold change: 0.232

RRIRIRPPRLPRPRPRPWMQPRP
shrunken log2 fold change: -0.182

RRIRWRPPRLPRPRPRPHYEPRP
shrunken log2 fold change: -0.209

RRIRDRPPRLPRPRPRPKPRPRP
shrunken log2 fold change: 0.711

RRIRNRPPRLPRPRPRPELDPRP
shrunken log2 fold change: 0.0611

RRIRSRPPRLPRPRPRPWQSPRP
shrunken log2 fold change: 0.143

RRIRQRPPRLPRPRPRPGKHPRP
shrunken log2 fold change: 0.0941

RRIRFRPPRLPRPRPRPTPQPRP
shrunken log2 fold change: 0.366

RRIRIRPPRLPRPRPRPIGDPRP
shrunken log2 fold change: -0.0264

RRIRARPPRLPRPRPRPWLKPRP
shrunken log2 fold change: -0.0421

RRIRIRPPRLPRPRPRPQDKPRP
shrunken log2 fold change: -0.855

RRIRVRPPRLPRPRPRPITWPRP
shrunken log2 fold change: -0.182

RRIRGRPPRLPRPRPRPILMPRP
shrunken log2 fold change: -0.05

RRIRRRPPRLPRPRPRPTEFPRP
shrunken log2 fold change: -0.191

RRIRLRPPRLPRPRPRPISEPRP
shrunken log2 fold change: 0.00295

RRIRKRPPRLPRPRPRPIPGPRP
shrunken log2 fold change: -0.0379

RRIRVRPPRLPRPRPRPNWGPRP
shrunken log2 fold change: 0.119

RRIRIRPPRLPRPRPRPLATPRP
shrunken log2 fold change: -0.0671

RRIRGRPPRLPRPRPRPKEMPRP
shrunken log2 fold change: 0.5

RRIRPRPPRLPRPRPRPTCCPRP
shrunken log2 fold change: -0.0529

RRIRNRPPRLPRPRPRPKMIPRP
shrunken log2 fold change: -0.495

RRIRWRPPRLPRPRPRPNWLPRP
shrunken log2 fold change: 0.0255

RRIRKRPPRLPRPRPRPYQHPRP
shrunken log2 fold change: -0.0857

RRIRMRPPRLPRPRPRPSSTPRP
shrunken log2 fold change: 0.858

RRIRDRPPRLPRPRPRPHAFPRP
shrunken log2 fold change: -0.0699

RRIRQRPPRLPRPRPRPDYCPRP
shrunken log2 fold change: -0.163

RRIRSRPPRLPRPRPRPSITPRP
shrunken log2 fold change: -0.392

RRIRIRPPRLPRPRPRPSGYPRP
shrunken log2 fold change: 0.00435

RRIRLRPPRLPRPRPRPWSKPRP
shrunken log2 fold change: -0.547

RRIRCRPPRLPRPRPRPQTMPRP
shrunken log2 fold change: -0.349

RRIRTRPPRLPRPRPRPSKFPRP
shrunken log2 fold change: -0.624

RRIRMRPPRLPRPRPRPSVEPRP
shrunken log2 fold change: 0.227

RRIRARPPRLPRPRPRPYEAPRP
shrunken log2 fold change: -0.222

RRIRPRPPRLPRPRPRPRLWPRP
shrunken log2 fold change: 0.917

RRIRQRPPRLPRPRPRPRSRPRP
shrunken log2 fold change: 0.0402

RRIRFRPPRLPRPRPRPDLLPRP
shrunken log2 fold change: 0.118

RRIRPRPPRLPRPRPRPALQPRP
shrunken log2 fold change: 0.0721

RRIRIRPPRLPRPRPRPTVAPRP
shrunken log2 fold change: 0.334

RRIRARPPRLPRPRPRPDDMPRP
shrunken log2 fold change: 0.371

RRIRIRPPRLPRPRPRPDWIPRP
shrunken log2 fold change: -1.16

RRIRPRPPRLPRPRPRPHSTPRP
shrunken log2 fold change: -0.583

RRIRVRPPRLPRPRPRPDKGPRP
shrunken log2 fold change: -0.591

RRIRYRPPRLPRPRPRPESFPRP
shrunken log2 fold change: -0.0275

RRIRGRPPRLPRPRPRPCEDPRP
shrunken log2 fold change: 0.0133

RRIRMRPPRLPRPRPRPSWTPRP
shrunken log2 fold change: -0.0874

RRIRKRPPRLPRPRPRPHTCPRP
shrunken log2 fold change: 0.00412

RRIRLRPPRLPRPRPRPMPCPRP
shrunken log2 fold change: -0.12

RRIRQRPPRLPRPRPRPLWSPRP
shrunken log2 fold change: -0.147

RRIRSRPPRLPRPRPRPCGKPRP
shrunken log2 fold change: 0.027

RRIRYRPPRLPRPRPRPNVDPRP
shrunken log2 fold change: -1.26

RRIRWRPPRLPRPRPRPKCKPRP
shrunken log2 fold change: 0.0552

RRIRNRPPRLPRPRPRPGCVPRP
shrunken log2 fold change: 0.634

RRIRMRPPRLPRPRPRPFPFPRP
shrunken log2 fold change: -0.356

RRIRDRPPRLPRPRPRPGRNPRP
shrunken log2 fold change: -0.495

RRIRTRPPRLPRPRPRPHRMPRP
shrunken log2 fold change: -0.267

RRIRIRPPRLPRPRPRPATDPRP
shrunken log2 fold change: -0.161

RRIRERPPRLPRPRPRPPYNPRP
shrunken log2 fold change: -0.728

RRIRYRPPRLPRPRPRPYLDPRP
shrunken log2 fold change: 0.0821

RRIRSRPPRLPRPRPRPCWGPRP
shrunken log2 fold change: 0.109

RRIRGRPPRLPRPRPRPHVTPRP
shrunken log2 fold change: 0.00976

RRIRDRPPRLPRPRPRPYGFPRP
shrunken log2 fold change: -0.0405
